# Results from publication PMC9769368.
# Molecular target: AAVGo.1 virus-like particles (goat adeno-associated virus capsid, without DNA genome) (goat adeno-associated virus AAVGo.1)
# Test: ELISA; direct ELISA in duplicate; AAV VLPs (2.5 ug/mL) coated on plates in 100 mM NaHCO3 pH 9.6, washed with TBST; N-terminally His-tagged AAVR fragment added, detected with anti-6x His HRP antibody; OD 450 nm; EC50 by nonlinear regression (avidity)
row,Substance,fold stronger binding avidity than AAV5 [fold]
1,"His6PKD1, fragment of human AAV receptor (AAVR) with PKD domain 1 (domain or fragment)",3
2,"His6PKD12, fragment of human AAV receptor (AAVR) with PKD domains 1 and 2 (domain or fragment)",2
